T1: PA-mST6Gal II (mouse ST6Gal II) (Mus musculus, UniProt Q76K27, R48S)
T1 construct: amino acids 31-524 in the case of mouse ST6Gal II; signal peptide of mouse immunoglobulin IgM (N); made in house; host or cells: COS-7 cells, transient expression of pcDSA-mST6Gal II; protein recovered from medium on IgG-Sepharose
T1 sequence (Q76K27 31-524 R48S): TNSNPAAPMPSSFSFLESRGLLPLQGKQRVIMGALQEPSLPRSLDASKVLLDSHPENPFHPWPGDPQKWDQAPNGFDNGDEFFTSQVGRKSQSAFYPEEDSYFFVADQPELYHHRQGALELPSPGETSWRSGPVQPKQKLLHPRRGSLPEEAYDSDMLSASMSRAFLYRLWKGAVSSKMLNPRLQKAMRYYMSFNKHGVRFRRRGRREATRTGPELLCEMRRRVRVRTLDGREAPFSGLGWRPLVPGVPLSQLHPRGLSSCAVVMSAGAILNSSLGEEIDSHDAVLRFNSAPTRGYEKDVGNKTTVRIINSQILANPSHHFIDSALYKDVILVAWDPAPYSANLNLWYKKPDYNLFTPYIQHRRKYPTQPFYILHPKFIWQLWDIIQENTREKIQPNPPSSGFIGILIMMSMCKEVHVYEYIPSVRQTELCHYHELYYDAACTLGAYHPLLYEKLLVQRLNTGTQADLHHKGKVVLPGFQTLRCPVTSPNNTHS

T2: PA-mST8Sia VI (Mus musculus, UniProt Q8K4T1)
T2 construct: amino acids 26-398 in the case of mouse ST8Sia VI; signal peptide of mouse immunoglobulin IgM (N); made in house; host or cells: COS-7 cells, transient expression of pcDSA-mST8Sia VI; protein recovered from medium on IgG-Sepharose
T2 sequence (Q8K4T1 26-398): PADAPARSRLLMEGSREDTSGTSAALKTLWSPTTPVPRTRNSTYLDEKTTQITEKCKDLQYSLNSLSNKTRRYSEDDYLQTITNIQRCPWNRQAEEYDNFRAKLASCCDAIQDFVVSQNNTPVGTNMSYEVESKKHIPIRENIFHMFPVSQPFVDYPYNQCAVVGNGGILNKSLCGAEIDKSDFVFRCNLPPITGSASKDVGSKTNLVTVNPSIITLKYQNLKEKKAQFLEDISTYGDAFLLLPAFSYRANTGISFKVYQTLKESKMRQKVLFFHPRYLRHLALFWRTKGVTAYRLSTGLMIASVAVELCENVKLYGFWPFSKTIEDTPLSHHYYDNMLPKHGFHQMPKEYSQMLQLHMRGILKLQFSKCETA

T3: mouse ST8Sia III (Mus musculus, UniProt Q64689)
T3 sequence (Q64689 1-380): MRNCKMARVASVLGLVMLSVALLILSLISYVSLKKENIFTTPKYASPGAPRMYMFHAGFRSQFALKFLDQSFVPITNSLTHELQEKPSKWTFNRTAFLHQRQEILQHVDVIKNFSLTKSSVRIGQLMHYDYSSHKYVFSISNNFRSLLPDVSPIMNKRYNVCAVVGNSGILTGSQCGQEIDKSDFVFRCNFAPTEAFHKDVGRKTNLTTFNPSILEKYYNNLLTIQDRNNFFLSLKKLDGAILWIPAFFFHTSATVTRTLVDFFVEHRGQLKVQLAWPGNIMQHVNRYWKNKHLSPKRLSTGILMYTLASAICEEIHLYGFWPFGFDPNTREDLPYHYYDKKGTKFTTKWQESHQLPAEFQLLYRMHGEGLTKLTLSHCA

B1: Ovomucoid: glycoprotein acceptor substrate which contains only N-glycans (protein, UniProt P01005 25-210, looked up)
Ovomucoid: AEVDCSRFPNATDKEGKDVLVCNKDLRPICGTDGVTYTNDCLLCAYSIEFGTNISKEHDGECKETVPMNCSSYANTTSEDGKVMVLCNRAFNPVCGTDGVTYDNECLLCAHKVEQGASVDKRHDGGCRKELAAVSVDCSEYPKPDCTAEDRPLCGSDNKTYGNKCNFCNAVVESNGTLTLSHFGKC
B2: Asialoovomucoid: desialylated ovomucoid prepared at 80° C. for 1 hour in 0.02 N HCl (protein, UniProt P01005 25-210, looked up)
Ovomucoid: B1 Ovomucoid
modifications: desialylated
notes: desialylated ovomucoid prepared at 80° C. for 1 hour in 0.02 N HCl

Target: T1, PA-mST6Gal II (mouse ST6Gal II)
Test: Sialyltransferase activity of PA-mST6Gal II toward acceptor substrates
Type: biochemical
Conditions: PA-mST6Gal II; incorporation with Galβ1,4GlcNAc taken as 100; 0.5 mg/ml glycolipids, 1 mg/ml glycoproteins and oligosaccharides
Description: Using each expression vector and lipofectamine (Invitrogen), transient expression was carried out in COS-7 cells (Kojima, N. et al. (1995) FEBS Lett. 360, 1-4). The proteins of the present invention secreted from the cells into which each expression vector had been introduced were named as PA-hST6Gal II (human) and PA-mST6Gal II (mouse). PA-hST6Gal II and PA-mST6Gal II were adsorbed to IgG-Sepharose (Amersham Pharmacia Biotech), and were then recovered from medium. Sialyltransferase activity was measured as follows according to the method of Lee et al. (Lee, Y.-C. et al. (1999) J Biol. Chem. 274, 11958-11967). A reaction mixture (10 μl) containing 50 mM MES buffer (pH 6.0), 1 mM MgCl2, 1 mM CaCl2, 0.5% Triton CF-54, 100 μM CMP-[^14C]-NeuAc, a substrate sugar chain (which was added at 0.5 mg/ml in the case of glycolipids, and at 1 mg/ml in the case of glycoproteins or oligosaccharides), and a PA-hST6Gal II or PA-mST6Gal II suspension, was incubated at 37° C. for 3 to 20 hours. Thereafter, in the case of glycolipids, the reaction product was purified with a C-18 column (Sep-Pak Vac 100 mg; Waters) and the purified product was used as a sample. In the case of oligosaccharides or glycoproteins, the reaction product was directly used as a sample. Thus, the obtained sample was subjected to analysis. In the case of oligosaccharides or glycolipids, the sample was spotted on a silica gel 60 HPTLC plate (Merck), and it was then developed with a developing solvent consisting of 1-propanol:ammonia water:water=6:1:2.5 (for oligosaccharides), or a developing solvent consisting of chloroform:methanol: 0.02% CaCl2=55:45:10 (for glycolipids). In the case of glycoproteins, analysis was carried out by SDS-polyacrylamide gel electrophoresis. The obtained radioactivities were visualized with a BAS2000 radio image analyzer (Fuji Film) and then quantified.

Going from “Asialofetuin: asialo glycoprotein acceptor substrate purchased from Sigma” to NeuAcα2,3Galβ1,4Glcβ1-Cer [GM3], the “Relative rate (%) Mouse ST6Gal II” value falls from 21.0% to 0%.

Compared with Galβ1,4Glcβ1-Cer [Lactosylceramide], “α1-Acid glycoprotein: glycoprotein acceptor substrate purchased from Sigma” is higher in “Relative rate (%) Mouse ST6Gal II” value: 0% for the first, 0.75% for the second.

Going from “Asialo- α1-Acid glycoprotein: desialylated α1-acid glycoprotein prepared at 80° C. for 1 hour in 0.02 N HCl” to “Fetuin: glycoprotein acceptor substrate containing both O-glycans and N-glycans, purchased from Sigma”, the “Relative rate (%) Mouse ST6Gal II” value falls from 12.3% to 0%.

“Galβ1,3GalNAcβ1,4(NeuAcα2,3)Galβ1,4Glcβ1-Cer [GM1a]” and B1 are the same in “Relative rate (%) Mouse ST6Gal II” value: 0% for the first, 0% for the second.

With B2 the “Relative rate (%) Mouse ST6Gal II” value was 0%.

Target: T2, PA-mST8Sia VI
Test: N-glycanase treatment of Fetuin sialylated with [14C]-NeuAc by PA-mST8Sia VI
Type: biochemical
Conditions: sialylated by PA-mST8Sia VI with [14C]-NeuAc; shows incorporation into O-glycans
Description: (§1) In FIG. 4, Fetuin was [^14C]-NeuAc-incorporated by ST8Sia III or ST8Sia VI and then treated with N-glycanase. The [^14C]-NeuAc-incorporated Fetuin was treated with N-glycanase, and the treated product was analyzed by SDS-PAGE. Thereafter, it was visualized with a BAS2000 radio image analyzer.
(§2) It was found by an N-glycanase treatment that when Fetuin was used as a substrate, the majority of sialic acid, which was newly introduced by PA-mST8Sia VI, was incorporated into O-glycans (FIG. 4). That is, when Fetuin was sialylated by PA-mST8Sia VI with [^14C]-NeuAc, and the sialylated product was then treated with N-glycanase, which releases N-glycans from a peptide portion. The majority (82.7%) of radioactivity was still kept in the Fetuin after this treatment. […] On the other hand, the same experiment was carried out using mouse ST8Sia III, which used N-glycans of Fetuin as substrates.

With “Fetuin: glycoprotein acceptor substrate containing both O-glycans and N-glycans, purchased from Sigma” the “radioactivity still kept in the Fetuin after N-glycanase treatment” value was 82.7%.

Target: T3, mouse ST8Sia III
Test: N-glycanase treatment of Fetuin sialylated with [14C]-NeuAc by mouse ST8Sia III
Type: biochemical
Conditions: not given
Description: as §1, §2

In the case of “Fetuin: glycoprotein acceptor substrate containing both O-glycans and N-glycans, purchased from Sigma”, the “radioactivity in Fetuin after N-glycanase treatment (in words)” value is reported as “completely disappeared”.
